Assay results taken from PMC9409550 (PLoS ONE, 2022).

Legend:
Experiment in all cases: flow cytometry on cells
Settings in all cases: one partner purified
[1] = biological target: LYRa11 RBD, yeast-displayed (bat sarbecovirus LYRa11)
[2] = biological target: RsSHC014 RBD, yeast-displayed (bat sarbecovirus RsSHC014, UniProt U5WLK5 318-517)
[3] = biological target: Rs4048 RBD, yeast-displayed (bat sarbecovirus Rs4048)
[4] = biological target: RaTG13 RBD, yeast-displayed (bat sarbecovirus RaTG13)
[5] = biological target: Rs7327 RBD, yeast-displayed (bat sarbecovirus Rs7327)
[6] = biological target: SARS-CoV-1 (Urbani) RBD, yeast-displayed (SARS-CoV-1 (Urbani))
[7] = biological target: Rs4231 RBD, yeast-displayed (bat sarbecovirus Rs4231)
[8] = biological target: SARS-CoV-2 Wuhan-Hu-1 RBD, yeast-displayed (SARS-CoV-2, UniProt P0DTC2 330-530)

B1: CDY14HL-Fc1 (Fc fusion)
chain: QSTIEEQAKTFLDMFNHKAEDLFYQSSLAAWNYNTNITEENVQNMNNAGDKWSAFLKEQSTFAQMYPLQEIQNPTVKLQLQALQQNGSSVLSEDKSKRLNTILNTMSTIYSTGKVCNPDNPQECLLLEPGLNEIMANSLDYNERLWAWESWRSEVGKQLRPLYEEYVVLKNEMARANHYEDYGDYWRGDYEVNGVDGYDYSRGQLIEDVEHTFEEIKPLYEHLHAYVRAKLMNAYPSYISPIGCLPAHLLGDMWGRFWTNLYSLTVPFGQKPNIDVTDAMVDQAWDAQRIFKEAEKFFVSVGLPNMTQGFWEYSMLTDPGNVQKAVCLPTAWDLGKGDFRILMCTKVTMDDFLTAHHEMGHIQYDMAYAAQPFLLRNGANEGFHEAVGEIMSLSAATPKHLKSIGLLSPDFQEDNETEINFLLKQALTIVGTLPFTYMLEKWRWMVFKGEIPKDQWMKKWWEMKREIVGVVEPVPHDETYCDPASLFHVSNDYSFIRYYTRTLYQFQFQEALCQAAKHEGPLHKCDISNSTEAGQKLFNMLRLGKSEPWTLALENVVGAKNMNVRPLLNYFEPLFTWLKDQNKNSFVGWSTDWSPYAD
- Kd [1]: 0.29 nM
- Kd [2]: 0.31 nM
- Kd [3]: 0.31 nM
- Kd [4]: 1.4 nM
- Kd [5]: 0.31 nM
- Kd [6]: 0.25 nM
- Kd [7]: 0.3 nM
- Kd [8]: 0.14 nM
